Experimental findings from patent US20240239863A1, “GIP RECEPTOR AGONIST AND USE THEREOF” (HANGZHOU ZHONGMEIHUADONG PHARMACEUTICAL CO., LTD., priority 2022, published 2024) are described below.

Read-outs that look alike come from different tables or passages of the source. Starred links: 1 amine or outer side, 2 acyl side, 3 side chain; linkers in the order of their positions; H or OH if unused. Non-standard residues stand in square brackets, D forms with d. Residues, ends and D or L forms follow the SMILES beside them. Groups on a side chain read outwards from the residue. No end group written: not given here. *: point of attachment. d(γGlu) = O=C(O)[C@@H](CCC(=O)[*:2])N[*:1]; C18 diacid = O=C(O)CCCCCCCCCCCCCCCCC(=O)*; AEEA = NCCOCCOCC(=O)O; Aib = CC(C)(N)C(=O)O A value given as a limit tells only on which side of the number the result lay.

What is called EC50 is the concentration giving half of the maximal effect.

Assay [1] addresses hGLP-1R (Homo sapiens, UniProt P43220). Briefly: Cell agonistic activity at GLP-1 receptor (Example 7). Format: cell-based.
Assay [2] deals with T1, human GIP receptor (glucose-dependent insulinotropic peptide receptor, GIPR) (human, UniProt P48546 22-466).
T1 sequence (looked up): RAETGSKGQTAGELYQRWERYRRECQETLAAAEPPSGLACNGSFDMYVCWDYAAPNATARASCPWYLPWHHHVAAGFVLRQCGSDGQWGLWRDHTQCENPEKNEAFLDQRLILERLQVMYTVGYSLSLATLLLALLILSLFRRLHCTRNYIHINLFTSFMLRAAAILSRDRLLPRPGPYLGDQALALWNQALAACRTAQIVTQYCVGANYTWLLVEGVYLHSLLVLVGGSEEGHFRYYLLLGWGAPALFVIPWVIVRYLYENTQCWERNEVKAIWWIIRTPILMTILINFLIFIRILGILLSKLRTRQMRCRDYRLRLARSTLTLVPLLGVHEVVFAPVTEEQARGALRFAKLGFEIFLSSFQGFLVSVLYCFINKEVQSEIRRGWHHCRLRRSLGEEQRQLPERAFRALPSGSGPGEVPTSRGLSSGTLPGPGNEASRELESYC
In words: cell-based or functional assay.

Assay [3] deals with human GLP-1 receptor (human, UniProt P43220 24-463). In words: cell-based or functional assay.

Sequence of hGLP-1R (P43220 24-463): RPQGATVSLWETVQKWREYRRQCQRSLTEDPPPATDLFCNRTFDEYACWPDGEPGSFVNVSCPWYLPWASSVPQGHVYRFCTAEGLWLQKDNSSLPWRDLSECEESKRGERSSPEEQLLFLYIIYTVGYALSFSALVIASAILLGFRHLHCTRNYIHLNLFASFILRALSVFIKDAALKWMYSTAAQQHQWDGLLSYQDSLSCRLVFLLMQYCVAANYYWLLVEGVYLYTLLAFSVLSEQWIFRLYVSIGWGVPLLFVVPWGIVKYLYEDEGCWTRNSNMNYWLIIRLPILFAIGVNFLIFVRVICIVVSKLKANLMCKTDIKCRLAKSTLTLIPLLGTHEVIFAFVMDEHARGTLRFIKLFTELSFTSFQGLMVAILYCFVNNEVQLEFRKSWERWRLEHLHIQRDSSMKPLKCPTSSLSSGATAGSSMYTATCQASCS

`CC[C@H](C)[C@H](NC(=O)[C@H](CO)NC(=O)[C@H](Cc1ccc(O)cc1)NC(=O)[C@H](CC(=O)O)NC(=O)[C@H](CO)NC(=O)[C@@H](NC(=O)[C@H](Cc1ccccc1)NC(=O)[C@@H](NC(=O)CNC(=O)[C@H](CCC(=O)O)NC(=O)C(C)(C)NC(=O)[C@@H](N)Cc1ccc(O)cc1)[C@@H](C)O)[C@@H](C)CC)C(=O)N[C@@H](C)C(=O)N[C@@H](CC(C)C)C(=O)N[C@@H](CC(=O)O)C(=O)N[C@@H](CCCCN)C(=O)N[C@H](C(=O)N[C@@H](Cc1c[nH]cn1)C(=O)N[C@@H](CCC(N)=O)C(=O)N[C@@H](CCC(=O)O)C(=O)N[C@@H](CC(=O)O)C(=O)N[C@@H](Cc1ccccc1)C(=O)N[C@H](C(=O)N[C@@H](CC(N)=O)C(=O)N[C@@H](Cc1c[nH]c2ccccc12)C(=O)N[C@@H](CC(C)C)C(=O)N[C@@H](CC(C)C)C(=O)N[C@@H](C)C(=O)N[C@@H](CCC(N)=O)C(=O)N[C@@H](CCCNC(=N)N)C(=O)NCC(=O)O)C(C)C)[C@@H](C)CC` [Sequence 9] (H-Y[Aib]EGTFISDYSIALDKIHQEDFVNWLLAQRG-OH; N-terminus and C-terminus assumed): the EC50 in assay [1] was > 0.1 nM.

On to `CC[C@H](C)[C@H](NC(=O)[C@H](CO)NC(=O)[C@H](Cc1ccc(O)cc1)NC(=O)[C@H](CC(=O)O)NC(=O)[C@H](CO)NC(=O)[C@@H](NC(=O)[C@H](Cc1ccccc1)NC(=O)[C@@H](NC(=O)CNC(=O)[C@H](CCC(=O)O)NC(=O)C(C)(C)NC(=O)[C@@H](N)Cc1ccc(O)cc1)[C@@H](C)O)[C@@H](C)CC)C(=O)N[C@@H](C)C(=O)N[C@@H](CC(C)C)C(=O)N[C@@H](CC(=O)O)C(=O)N[C@@H](CCC(=O)O)C(=O)N[C@@H](CC(C)C)C(=O)N[C@@H](Cc1c[nH]cn1)C(=O)N[C@@H](CCC(N)=O)C(=O)N[C@@H](CCCCN)C(=O)N[C@@H](CC(=O)O)C(=O)N[C@@H](Cc1ccccc1)C(=O)N[C@H](C(=O)N[C@@H](CC(N)=O)C(=O)N[C@@H](Cc1c[nH]c2ccccc12)C(=O)N[C@@H](CC(C)C)C(=O)N[C@@H](CC(C)C)C(=O)N[C@@H](C)C(=O)N[C@@H](CCC(N)=O)C(=O)N[C@@H](CCCNC(=N)N)C(=O)NCC(=O)O)C(C)C` [Sequence 6] (H-Y[Aib]EGTFISDYSIALDELHQKDFVNWLLAQRG-OH; N-terminus and C-terminus assumed), for which, in assay [1], the EC50 was > 0.1 nM.

For `CC[C@H](C)[C@H](NC(=O)[C@H](CO)NC(=O)[C@H](Cc1ccc(O)cc1)NC(=O)[C@H](CC(=O)O)NC(=O)[C@H](CO)NC(=O)[C@@H](NC(=O)[C@H](Cc1ccccc1)NC(=O)[C@@H](NC(=O)CNC(=O)[C@H](CCC(=O)O)NC(=O)C(C)(C)NC(=O)[C@@H](N)Cc1ccc(O)cc1)[C@@H](C)O)[C@@H](C)CC)C(=O)N[C@@H](C)C(=O)N[C@@H](CC(C)C)C(=O)N[C@@H](CC(=O)O)C(=O)N[C@@H](CCCNC(=N)N)C(=O)N[C@H](C(=O)N[C@@H](Cc1c[nH]cn1)C(=O)N[C@@H](CCC(N)=O)C(=O)N[C@@H](CCC(=O)O)C(=O)N[C@@H](CC(=O)O)C(=O)N[C@@H](Cc1ccccc1)C(=O)N[C@H](C(=O)N[C@@H](CCCCN)C(=O)N[C@@H](Cc1c[nH]c2ccccc12)C(=O)N[C@@H](CC(C)C)C(=O)N[C@@H](CC(C)C)C(=O)N[C@@H](C)C(=O)N[C@@H](CCC(N)=O)C(=O)N[C@@H](CCCNC(=N)N)C(=O)NCC(=O)O)C(C)C)[C@@H](C)CC` [Sequence 11] (H-Y[Aib]EGTFISDYSIALDRIHQEDFVKWLLAQRG-OH; N-terminus and C-terminus assumed), in assay [1], the concentration giving a half-maximal response (EC50) is > 0.1 nM.

As to `CC[C@H](C)[C@H](NC(=O)[C@H](CO)NC(=O)[C@H](Cc1ccc(O)cc1)NC(=O)[C@H](CC(=O)O)NC(=O)[C@H](CO)NC(=O)[C@@H](NC(=O)[C@H](Cc1ccccc1)NC(=O)[C@@H](NC(=O)CNC(=O)[C@H](CCC(=O)O)NC(=O)C(C)(C)NC(=O)[C@@H](N)Cc1ccc(O)cc1)[C@@H](C)O)[C@@H](C)CC)C(=O)N[C@@H](C)C(=O)N[C@@H](CC(C)C)C(=O)N[C@@H](CC(=O)O)C(=O)N[C@@H](CCCCNC(=O)COCCOCCNC(=O)COCCOCCNC(=O)CC[C@@H](NC(=O)CCCCCCCCCCCCCCCCC(=O)O)C(=O)O)C(=O)N[C@@H](CC(C)C)C(=O)N[C@@H](Cc1c[nH]cn1)C(=O)N[C@@H](CCC(N)=O)C(=O)N[C@@H](CCC(=O)O)C(=O)N[C@@H](CC(=O)O)C(=O)N[C@@H](Cc1ccccc1)C(=O)N[C@H](C(=O)N[C@@H](CC(N)=O)C(=O)N[C@@H](Cc1c[nH]c2ccccc12)C(=O)N[C@@H](CC(C)C)C(=O)N[C@@H](CC(C)C)C(=O)N[C@@H](C)C(=O)N[C@@H](CCC(N)=O)C(=O)N[C@@H](CCCNC(=N)N)C(=O)NCC(=O)O)C(C)C` [Peptide 10, N-{ε-16}-18-{[(23R)-23-carboxyl-2,11,20-trioxo-10,19-diaza-4,7,13,16-tetraoxatricosyl-23-yl]amino}-18-oxooctadecanoic acid acetyl-[Aib2, L14, L17, E20, R30]-hGIP(1-31)] (H-Y[Aib]EGTFISDYSIALDK([AEEA-AEEA-d(γGlu)-C18 diacid])LHQEDFVNWLLAQRG-OH), the EC50 in assay [1] (read-out: hGLP-1R EC50) was > 0.1 nM.

Y[Aib]EGTFISDYSIALDELHQKDFVNWLLAQRG [Sequence 6 (Seq ID. 6)]: in assay [2], the “EC50(pM), cell agonistic activity (cAMP, HTRF)” value (shortened to “EC50(pM) … (cAMP, HTRF)”) came out at 7.93 pM. Further, in assay [3], the “EC50(pM), cell agonistic activity” value is > 100 pM.

Y[Aib]EGTFISDYSIALDKIHQEDFVNWLLAQRG [Sequence 9 (Seq ID. 9)]: in assay [2], the “EC50(pM) … (cAMP, HTRF)” value stood at 16.4 pM. The “EC50(pM), cell agonistic activity” value in assay [3] is > 100 pM.

Consider Y[Aib]EGTFISDYSIALDKLHQQDFVNWLLAQRG [Sequence 8 (Seq ID. 8)], for which, in assay [2], the “EC50(pM) … (cAMP, HTRF)” value is 11.7 pM. In addition, the “EC50(pM), cell agonistic activity” value in assay [3] is > 100 pM.

Turning to Y[Aib]EGTFISDYSIALDEIHQKDFVKWLLAQKG [Sequence 4 (Seq ID. 4)], the “EC50(pM) … (cAMP, HTRF)” value in assay [2] turned out to be 2.87 pM. In assay [3], the “EC50(pM), cell agonistic activity” value is > 100 pM.

For Y[Aib]EGTFISDYSIALDKIHQEDFVKWLLAQKG [Sequence 3 (Seq ID. 3)], in assay [2], the “EC50(pM) … (cAMP, HTRF)” value is 3.41 pM. In addition, in assay [3], the “EC50(pM), cell agonistic activity” value is > 100 pM.

Consider Y[Aib]EGTFISDYSIALDRIHQEDFVKWLLAQRG [Sequence 11 (Seq ID. 11)], for which, in assay [2], the “EC50(pM) … (cAMP, HTRF)” value turned out to be 3.44 pM. The “EC50(pM), cell agonistic activity” value in assay [3] was > 100 pM.

Turning to Y[Aib]EGTFISDYSIALDRIHQEDFVNWLLAQKG [Sequence 12 (Seq ID. 12)], the “EC50(pM) … (cAMP, HTRF)” value in assay [2] amounted to 0.81 pM. In addition, the “EC50(pM), cell agonistic activity” value in assay [3] was > 100 pM.

On to Y[Aib]EGTFISDYSIALDKIHQQDFVNWLLAQRG [Sequence 7 (Seq ID. 7)], for which the “EC50(pM) … (cAMP, HTRF)” value in assay [2] was 6.04 pM. For the same molecule, in assay [3], the “EC50(pM), cell agonistic activity” value is > 100 pM.

For Y[Aib]EGTFISDYSIALDKLHQEDFVNWLLAQRG [Sequence 10 (Seq ID. 10)], the “EC50(pM) … (cAMP, HTRF)” value in assay [2] stood at 1.63 pM. The “EC50(pM), cell agonistic activity” value in assay [3] is > 100 pM.

With Y[Aib]EGTFISDYSIALDEIHQKDFVNWLLAQRG [Sequence 5 (Seq ID. 5)], the “EC50(pM) … (cAMP, HTRF)” value in assay [2] was 6.12 pM. Also, the “EC50(pM), cell agonistic activity” value in assay [3] is > 100 pM.
